Assays:
[1] = test system: primary human brain endothelial cells (BEC); assay: Colocalization of Aβ–LRP1 complex with PICALM by immunostaining in BEC; assay type: cell-based; settings: 250 nM, 30 s
[2] = test system: AD–derived endothelial monolayers; assay: Aβ transcytosis across AD–derived endothelial monolayers; assay type: in vitro ADME, human; settings: Aβ40 (1 nM) per Fig. 8b

Substance	colocalized Aβ–LRP1/PICALM puncta [1]	Aβ transport improved by co–transfer of PICALM and LRP1 mini–gene [2] [%]	Aβ transcytosis improved by adenoviral–mediated transfer of PICALM ([2]; compared to GFP control) [%]
FAM–Aβ42: 6-carboxyfluorescein-labeled Aβ42, Anaspec catalog # 23526	rapid increase	–	–
Aβ: amyloid β–peptide, isoform not named at the place; Aβ40 (1 nM) by legend of Fig. 8	–	89	63

Source: article PMC4482781 (Nature neuroscience, 2015)
